# B1: Annexin A1 wild type, P04083 (protein)
# chain: MAMVSEFLKQAWFIENEEQEYVQTVKSSKGGPGSAVSPYPTFNPSSDVAALHKAIMVKGVDEATIIDILTKRNNAQRQQIKAAYLQETGKPLDETLKKALTGHLEEVVLALLKTPAQFDADELRAAMKGLGTDEDTLIEILASRTNKEIRDINRVYREELKRDLAKDITSDTSGDFRNALLSLAKGDRSEDFGVNEDLADSDARALYEAGERRKGTDVNVFNTILTTRSYPQLRRVFQKYTKYSKHDMNKVLDLELKGDIEKCLTAIVKCATSKPAFFAEKLHQAMKGVGTRHKALIRIMVSRSEIDMNDIKAFYQKMYGISLCQAILDETKGDYEKILVALCGGN
# Conditions: Homo sapiens, Thermal, DSC, Sodium phosphate 50 mM, reversible: no, whole UniProt chain shown
protein,measurement,setting,value
B1,Tm,pH 3.2,41.1 °C
same,unfolding enthalpy (calorimetric),pH 3.2,427 kJ/mol
same,unfolding enthalpy (van 't Hoff),pH 3.2,421 kJ/mol
same,Tm,pH 3.4,48.5 °C
same,unfolding enthalpy (calorimetric),pH 3.4,581 kJ/mol
same,unfolding enthalpy (van 't Hoff),pH 3.4,499 kJ/mol
same,Tm,pH 3.8,56.4 °C
same,unfolding enthalpy (calorimetric),pH 3.8,634 kJ/mol
same,unfolding enthalpy (van 't Hoff),pH 3.8,596 kJ/mol
same,Tm,pH 4.5,62.3 °C
same,unfolding enthalpy (calorimetric),pH 4.5,802 kJ/mol
same,unfolding enthalpy (van 't Hoff),pH 4.5,837 kJ/mol
same,Tm,pH 5,62.7 °C
same,unfolding enthalpy (calorimetric),pH 5,849 kJ/mol
same,unfolding enthalpy (van 't Hoff),pH 5,862 kJ/mol
same,Tm,pH 6,61.8 °C
same,unfolding enthalpy (calorimetric),pH 6,824 kJ/mol
same,unfolding enthalpy (van 't Hoff),pH 6,939 kJ/mol
same,Tm,pH 7,59.9 °C
same,unfolding enthalpy (calorimetric),pH 7,836 kJ/mol
same,unfolding enthalpy (van 't Hoff),pH 7,921 kJ/mol
same,Tm,pH 8,58.5 °C
same,unfolding enthalpy (calorimetric),pH 8,824 kJ/mol
same,unfolding enthalpy (van 't Hoff),pH 8,898 kJ/mol
